The values below come from patent US20260217820A1 (ERASMUS UNIVERSITY MEDICAL CENTER ROTTERDAM, published 2026).

In assay [1] the target is T1, Rhesus Macaque CD117 on CD34-enriched bone marrow hematopoietic stem cells (Rhesus Macaque, UniProt F6V858 26-976).
T1 construct: whole, on cells; also called CD117 of Rhesus Macaque; Rhesus Macaque CD117-positive hematopoietic stem cells
The assay is described as follows: flow cytometry on Rhesus Macaque CD34-enriched bone marrow cells gated on CD34+ CD117+, R-Phycoerythrin goat anti-human F(ab')2 detection. (A flow cytometer gives signals particle by particle.)

The target in assay [2] is T2, CD117 protein (SinoBiological, cat #11996-H08H) (UniProt P10721-2 26-516).
T2 construct: Bought reagent
T2 sequence (P10721 other isoform, or with tags, fused parts or gaps H08H H08H limits assumed): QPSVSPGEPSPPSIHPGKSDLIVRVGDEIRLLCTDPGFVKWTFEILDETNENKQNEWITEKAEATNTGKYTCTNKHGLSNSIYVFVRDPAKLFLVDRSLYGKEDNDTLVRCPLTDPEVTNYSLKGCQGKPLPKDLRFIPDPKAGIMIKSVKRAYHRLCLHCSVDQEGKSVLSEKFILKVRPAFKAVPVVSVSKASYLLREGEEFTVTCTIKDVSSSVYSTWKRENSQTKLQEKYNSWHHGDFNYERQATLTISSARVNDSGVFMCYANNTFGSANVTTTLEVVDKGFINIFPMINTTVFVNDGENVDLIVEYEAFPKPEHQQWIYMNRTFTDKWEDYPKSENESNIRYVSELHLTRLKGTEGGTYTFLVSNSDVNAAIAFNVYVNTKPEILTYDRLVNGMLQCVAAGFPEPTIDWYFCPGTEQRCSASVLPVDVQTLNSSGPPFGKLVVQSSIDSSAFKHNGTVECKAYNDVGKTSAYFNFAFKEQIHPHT
The assay is described as follows: ELISA, CD117 protein coated.

In assay [3] the target is T3, Human CD16a (V176) protein (NovoProtein, cat #C441) (human, UniProt P08637 17-208).
T3 construct: also called CD16a receptor
T3 sequence (P08637 17-208 F176V limits assumed): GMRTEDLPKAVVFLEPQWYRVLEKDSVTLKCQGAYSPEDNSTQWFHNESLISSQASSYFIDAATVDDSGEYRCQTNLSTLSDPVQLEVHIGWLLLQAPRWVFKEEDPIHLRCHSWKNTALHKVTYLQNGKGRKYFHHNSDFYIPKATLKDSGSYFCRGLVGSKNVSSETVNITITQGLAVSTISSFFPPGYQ
The assay is described as follows: BLI (Octet Red 96e), CD16a (V176) on HIS1K sensors, antibody in solution, 1:1 global fit. (In general: BLI is a label-free optical method that tracks binding on a fibre tip over time.)

In assay [4] the target is T2, CD117 protein (SinoBiological, cat …). The assay can be described thus: ELISA on plate-coated CD117 protein, detection with anti-human IgG (Fc specific)-peroxidase, OD at 450 nm. (In general: An ELISA detects its analyte on a solid surface through an enzyme-linked reagent.)

B1: PR001310 anti-HELxCD3 control Bispecific T cell engager (bispecific antibody)
chain: DIVLTQSPAIMSASPGEKVTMTCSASSSVNYMYWYQQKSGTSPKRWIYDTSKLASGVPVRFSGSGSGTSYSLTISSMETEDAAEYYCQQWGRNPTFGGGTKLEIKRTVAAPSVFIFPPSDEQLKSGTASVVCLLNNFYPREAKVQWKVDNALQSGNSQESVTEQDSKDSTYSLSSTLTLSKADYEKHKVYACEVTHQGLSSPVTKSFNRGECEVQLVESGGGLVQPGGSLKLSCAASGFTFNTYAMNWVRQASGKGLEWVGRIRSKYNNYATYYADSVKDRFTISRDDSKSTLYLQMNSLKTEDTAVYYCVRHGNFGNSYVSWFAYWGQGTLVTVSSASTKGPSVFPLAPSSKSTSGGTAALGCLVKDYFPEPVTVSWNSGALTSGVHTFPAVLQSSGLYSLSSVVTVPSSSLGTQTYICNVNHKPSNTKVDKKVEPKSC
heavy: EVQLQQSGAELMKPGASVKISCKASGYTFSDYWIEWVKQRPGHGLEWIGEILPGSGSTNYHERFKGKATFTADTSSSTAYMQLNSLTSEDSGVYYCLHGNYDFDGWGQGTTLTVSSASTKGPSVFPLAPSSKSTSGGTAALGCLVKDYFPEPVTVSWNSGALTSGVHTFPAVLQSSGLYSLSSVVTVPSSSLGTQTYICNVNHKPSNTKVDKKVEPKSC
light: QAVVTQEPSLTVSPGGTVTLTCRSSTGAVTTSNYANWVQQKPGQAPRGLIGGTNKRAPWTPARFSGSLLGDKAALTLLGAQPEDEAEYFCALWYSNLWVFGGGTKLTVLGQPKAAPSVTLFPPSSEELQANKATLVCLISDFYPGAVTVAWKADSSPVKAGVETTTPSKQSNNKYAASSYLSLTPEQWKSHRSYSCQVTHEGSTVEKTVAPTECS
notes: Control engager; HEL = hen egg lysozyme; Same CD3 arm as PR004384; also called control anti-HELxCD3 Bispecific T cell engager
Consider B1, for which, in assay [1], the binding result is “no binding”.

B2: recombinant monoclonal antibody PR004382 (antibody, human IgG1, kappa)
heavy: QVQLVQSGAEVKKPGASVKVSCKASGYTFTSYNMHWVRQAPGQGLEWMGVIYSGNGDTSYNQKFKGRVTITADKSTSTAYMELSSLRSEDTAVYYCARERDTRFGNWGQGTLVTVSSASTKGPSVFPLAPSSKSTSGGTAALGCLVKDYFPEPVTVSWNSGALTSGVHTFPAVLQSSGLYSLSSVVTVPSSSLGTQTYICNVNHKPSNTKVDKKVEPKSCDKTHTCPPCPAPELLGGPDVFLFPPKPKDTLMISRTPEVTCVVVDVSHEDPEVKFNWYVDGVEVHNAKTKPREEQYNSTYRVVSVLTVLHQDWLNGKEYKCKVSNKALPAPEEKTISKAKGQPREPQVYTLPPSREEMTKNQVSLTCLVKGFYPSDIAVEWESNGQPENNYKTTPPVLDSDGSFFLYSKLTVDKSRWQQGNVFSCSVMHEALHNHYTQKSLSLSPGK
light: DIVMTQSPDSLAVSLGERATINCRASESVDIYGNSFMHWYQQKPGQPPKLLIYLASNLESGVPDRFSGSGSGTDFTLTISSLQAEDVAVYYCQQNNEDPYTFGGGTKVEIKRTVAAPSVFIFPPSDEQLKSGTASVVCLLNNFYPREAKVQWKVDNALQSGNSQESVTEQDSKDSTYSLSSTLTLSKADYEKHKVYACEVTHQGLSSPVTKSFNRGEC
notes: compared with a human IgG1 isotype control; also called PR004382 anti-CD117 antibody; copies: 2 + 2
A word on the EC50: it is the concentration needed to bring the measured effect to its halfway point. Higher therefore signals a need for much substance. For orientation: Kd means a measure of binding affinity in units of concentration. What is called koff is the rate constant with which the complex falls apart. Low values mean slow dissociation, high ones fast dissociation. By kon is commonly meant a measure of how fast the partners come together. By EC50 (read off the curve) is commonly meant the concentration at which the effect is half-maximal. The molecule B2 returned a concentration for a half-maximal effect (EC50) in assay [2] of 15.5 pM. In assay [3], this molecule showed a Kd of 27200 pM, an off-rate (koff) of 0.00933 s⁻¹ and an association rate constant (kon) of 343000 M⁻¹ s⁻¹. The concentration for a half-maximal effect (EC50 (read off the curve)) in assay [4] is approximately 100 pM.
